Source: patent US20160137746A1, “METHODS FOR TREATING HIGH CARDIOVASCULAR RISK PATIENTS WITH HYPERCHOLESTEROLEMIA” (Sanofi Biotechnology, priority 2014, published 2016)

Tested on: high cardiovascular risk patients with hypercholesterolemia
Assay: ODYSSEY LONG TERM: long-term safety and tolerability
[1] = Final analysis, Safety Analysis
[2] = Final analysis, Safety Analysis (N = 1550)
[3] = Safety population, 223 patients, pre-specified analysis
[4] = Safety population, 562 patients, pre-specified analysis
[5] = Safety population, treatment period, pre-specified analysis, 150 Q2W
[6] = TEAE period, pre-specified analysis
[7] = alirocumab patients with two consecutive LDL-C <25 mg/dL (n = 562), pre-specified analysis

Description: Safety parameters (adverse events [including adjudicated cardiovascular events], laboratory data, vital signs, and ECG) were assessed throughout the study.
Safety endpoints assessed in this trial were: cardiovascular events; allergic events; local tolerability at injection site; other adverse events (including hemolytic anemia); laboratory tests: urinalysis, hematology (red blood cell count, red blood cell distribution width (RDW), reticulocyte count, hemoglobin, hematocrit, platelets, white blood cell count with differential blood count), standard chemistry (sodium, potassium, chloride, bicarbonate, calcium, phosphorous, urea nitrogen, creatinine, uric acid, total protein, albumin, LDH, γ Glutamyl Transferase [γGT]), Vitamin E (alpha tocopherol) and other Fat Soluble Vitamins, cortisol (and reflexive ACTH levels, as needed, followed by ACTH stimulation test, as needed), Gonadal Hormone Assessments, Hepatitis C antibody, liver panel (ALT, AST, ALP, and total bilirubin), and CPK; vital signs including heart rate and blood pressure; and 12-lead ECG.
The safety population included all randomized patients who received at least one dose or part of a dose of the double-blind IMP.
Safety analyses were descriptive, performed on the safety population according to treatment actually received. The safety analysis focused on the TEAE period defined as the time from the first dose of double-blind injection up to 70 days after the last double-blind injection. TEAE which developed, worsened or became serious or PCSA occurring after the patient's first injection in the open-label extension study (LTS13643) were not considered in the TEAE period. TEAE period was truncated at the common study cut-off date.

Substance: Alirocumab: human anti-PCSK9 antibody; HCVR SEQ ID NO:1, LCVR SEQ ID NO:6; CDRs SEQ ID NOs 2/3/4/7/8/10
- Alanine aminotransferase >3 times ULN, % [1]: (1.8) %
- Alanine aminotransferase >3 times ULN, n/N [1]: 28/1533
- Aspartate aminotransferase >3 times ULN, % [1]: (1.4) %
- Aspartate aminotransferase >3 times ULN, n/N [1]: 22/1533
- Creatine kinase >3 times ULN, % [1]: (3.7) %
- Creatine kinase >3 times ULN, n/N [1]: 56/1507
- Diabetes in patients with no history of diabetes, % [1]: (1.8) %
- Diabetes in patients with no history of diabetes, n/N [1]: 18/994
- Worsening of diabetes in patients with history of diabetes, % [1]: (12.9) %
- Worsening of diabetes in patients with history of diabetes, n/N [1]: 72/556
- Amnesia, % of patients [2]: (0.3) %
- Amnesia, No. of patients [2]: 5
- CHD death including unknown cause, % of patients [2]: (0.3) %
- CHD death including unknown cause, No. of patients [2]: 4
- Confusional state, % of patients [2]: (0.3) %
- Confusional state, No. of patients [2]: 4
- Congestive heart failure requiring hospitalization, % of patients [2]: (0.6) %
- Congestive heart failure requiring hospitalization, No. of patients [2]: 9
- Fatal and non-fatal ischemic stroke, % of patients [2]: (0.6) %
- Fatal and non-fatal ischemic stroke, No. of patients [2]: 9
- General allergic reaction events, % of patients [2]: (10.1) %
- General allergic reaction events, No. of patients [2]: 156
- Hemolytic anemia, No. of patients [2]: 0
- Ischemia-driven coronary revascularization procedure, % of patients [2]: (3.1) %
- Ischemia-driven coronary revascularization procedure, No. of patients [2]: 48
- Local injection site reaction, % of patients [2]: (5.9) %
- Local injection site reaction, No. of patients [2]: 91
- Memory impairment, % of patients [2]: (0.3) %
- Memory impairment, No. of patients [2]: 4
- Myalgia, % of patients [2]: (5.4) %
- Myalgia, No. of patients [2]: 84
- Neurocognitive disorders, % of patients [2]: (1.2) %
- Neurocognitive disorders, No. of patients [2]: 18
- Neurological events, % of patients [2]: (4.2) %
- Neurological events, No. of patients [2]: 65
- Non-fatal MI, % of patients [2]: (0.9) %
- Non-fatal MI, No. of patients [2]: 14
- Ophthalmological events, % of patients [2]: (2.9) %
- Ophthalmological events, No. of patients [2]: 35
- Positively adjudicated cardiovascular events (including all cardiovascular AEs listed above), % of patients [2]: (4.6) %
- Positively adjudicated cardiovascular events (including all cardiovascular AEs listed above), No. of patients [2]: 72
- Post hoc analysis of a subgroup of adjudicated MACE, % of patients [2]: (1.7) %
- Post hoc analysis of a subgroup of adjudicated MACE, No. of patients [2]: 27
- TEAEs leading to death, % of patients [2]: (0.5) %
- TEAEs leading to death, No. of patients [2]: 8
- TEAEs leading to discontinuation, % of patients [2]: (7.2) %
- TEAEs leading to discontinuation, No. of patients [2]: 111
- TEAEs, % of patients [2]: (81.0) %
- TEAEs, No. of patients [2]: 1255
- Treatment-emergent SAEs, % of patients [2]: (18.7) %
- Treatment-emergent SAEs, No. of patients [2]: 290
- Time to the first calculated LDL-C value <15 mg/dL, mean (SD) [3]: 12.99 (12.43) weeks
- Time to the first calculated LDL-C value <15 mg/dL, median [3]: 8.14 weeks
- Time to the first calculated LDL-C value <25 mg/dL, mean (SD) [4]: 11.03 (11.51) weeks
- Time to the first calculated LDL-C value <25 mg/dL, median [4]: 4.86 weeks
- Patients with 2 consecutive calculated LDL-C value <15 mg/dL, % [5]: (14.8%)
- Patients with 2 consecutive calculated LDL-C value <15 mg/dL, n/N [5]: 223/1503
- Patients with 2 consecutive calculated LDL-C value <25 mg/dL, % [5]: (37.4%)
- Patients with 2 consecutive calculated LDL-C value <25 mg/dL, n/N [5]: 562/1503
- Cardiovascular death per adjudication [6]: 5 (0.3%) n (%)
- Patients with decreased plasma vitamin E levels below the outer limit of normal (31 out of 1461) [6]: 2.1%
- SAEs [6]: 255 (16.5%) n (%)
- AE of special interest: All adjudicated cardiovascular events, % of patients [7]: 4.3%
- AE of special interest: General allergic reaction events, % of patients [7]: 8.0%
- AE of special interest: Haemolytic anaemia, % (n) of patients [7]: 0
- AE of special interest: Neurocognitive disorders, % of patients [7]: 0.7%
- AE of special interest: Neurological events, % of patients [7]: 3.2%
- AE of special interest: Ophthalmological events, % of patients [7]: 2.5%
- AE of special interest: Treament-emergent local injection site reactions, % of patients [7]: 6.2%
- Neurocognitive AE: Amnesia, % (n) of patients [7]: 0
- Neurocognitive AE: Any neurocognitive disorder, % of patients [7]: 0.7%
- Neurocognitive AE: Confusion postoperative, % (n) of patients [7]: 0
- Neurocognitive AE: Confusional state, % of patients [7]: 0.2% (1)
- Neurocognitive AE: Dementia, % of patients [7]: 0.2% (1)
- Neurocognitive AE: Disorientation, % (n) of patients [7]: 0
- Neurocognitive AE: Disturbance in attention, % (n) of patients [7]: 0
- Neurocognitive AE: Frontotemporal dementia, % of patients [7]: 0.2% (1)
- Neurocognitive AE: Memory impairment, % (n) of patients [7]: 0
- Neurocognitive AE: Transient global amnesia, % (n) of patients [7]: 0
- TEAE ALT increase, % of patients [7]: 0.7%
- TEAE AST increase, % of patients [7]: 0%
- TEAE Angina pectoris, % of patients [7]: 1.8% (10)
- TEAE Arthralgia, % of patients [7]: 3.2% (18)
- TEAE Atrial fibrillation, % of patients [7]: 1.6% (9)
- TEAE Back pain, % of patients [7]: 5.0% (28)
- TEAE Bronchitis, % of patients [7]: 5.2% (29)
- TEAE CPK increase, % of patients [7]: 0.2%
- TEAE Cellulitis, % of patients [7]: 1.6% (9)
- TEAE Confusion, % of patients [7]: 1.2% (7)
- TEAE Constipation, % of patients [7]: 1.6% (9)
- TEAE Cough, % of patients [7]: 2.0% (11)
- TEAE Depression, % of patients [7]: 1.4% (8)
- TEAE Diarrhea, % of patients [7]: 3.9% (22)
- TEAE Dizziness, % of patients [7]: 1.4% (8)
- TEAE Fall, % of patients [7]: 1.6% (9)
- TEAE Fatigue, % of patients [7]: 3.0% (17)
- TEAE Gastoenteritis, % of patients [7]: 0.7% (4)
- TEAE Headache, % of patients [7]: 1.8% (10)
- TEAE Hypertension, % of patients [7]: 2.0% (11)
- TEAE Influenza, % of patients [7]: 4.1% (23)
- TEAE Injection site reaction, % of patients [7]: 3.6% (20)
- TEAE Lower respiratory tract infection (LRTI), % of patients [7]: 2.8% (16)
- TEAE Muscle spasms, % of patients [7]: 2.8% (16)
- TEAE Musculoskeletal pain, % of patients [7]: 1.4% (8)
- TEAE Myalgia, % of patients [7]: 3.0% (17)
- TEAE Nasopharyngitis, % of patients [7]: 10.0% (56)
- TEAE Nausea, % of patients [7]: 0.9% (5)
- TEAE Non-cardiac chest pain, % of patients [7]: 2.0% (11)
- TEAE Osteoarthritis, % of patients [7]: 2.1% (12)
- TEAE Pain in extremity, % of patients [7]: 2.1% (12)
- TEAE Rhinitis, % of patients [7]: 1.2% (7)
- TEAE Sinusitis, % of patients [7]: 3.0% (17)
- TEAE Type-2 diabetes mellitus, % of patients [7]: 2.5% (14)
- TEAE leading to death, % of patients [7]: 0.5% (3)
- TEAEs by System-Organ-Class: Blood and lymphatic system disorders, % of patients [7]: 1.6% (9)
- TEAEs by System-Organ-Class: Cardiac disorders, % of patients [7]: 7.5% (42)
- TEAEs by System-Organ-Class: Ear and labyrinth disorders, % of patients [7]: 1.2% (7)
- TEAEs by System-Organ-Class: Eye disorders, % of patients [7]: 6.4% (36)
- TEAEs by System-Organ-Class: Gastrointestinal disorders, % of patients [7]: 13.7% (77)
- TEAEs by System-Organ-Class: General disorders and administration site conditions, % of patients [7]: 11.0% (62)
- TEAEs by System-Organ-Class: Injury, poisoning, and procedural complications, % of patients [7]: 10.5% (59)
